How the values were obtained:
[1] = biological target: T1, recombinant KIR2DL2 protein (flow cytometry binding assay) (UniProt P43627); test: flow cytometry on cells; recombinant receptor proteins at 0.1 µM in autoMACS Running Buffer added to 1 × 10^4 K562 cells expressing the membrane-bound scFv, 4 °C, 90 min; detected with APC anti-human IgG Fc antibody; median fluorescence normalised to control K562 cells; details: one partner purified
T1 construct: KIR2DL2

[2] = biological target: T2, recombinant KIR2DL3 protein (flow cytometry binding assay) (UniProt P43628); test: as above; details: one partner purified
T2 construct: KIR2DL3; In the functional rows the receptor was whole KIR2DL3*001 expressed on NK-92 cells
T2 sequence (P43628 22-245): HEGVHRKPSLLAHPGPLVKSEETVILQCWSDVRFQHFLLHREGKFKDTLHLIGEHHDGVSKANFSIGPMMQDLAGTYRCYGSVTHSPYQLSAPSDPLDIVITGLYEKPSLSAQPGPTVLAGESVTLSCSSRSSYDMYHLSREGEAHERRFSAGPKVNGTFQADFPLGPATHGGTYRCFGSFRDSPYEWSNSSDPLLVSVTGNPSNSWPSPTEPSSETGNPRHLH

T1 sequence (P43627 22-245): as the sequence (P43628 22-245) above, with P16R, Q35E, R148C, T200I, E216K counted along it

binding result [1]: binds | binding result [2]: binds
B1: membrane-bound KIR2DL2/3 agonist 61 scFv expressed on K562 cells (scFv, V domains shown)
VH: QVQLVQSGAEVKKPGSSVKVSCKASGGTFSSFAISWVRQAPGQGLEWMGGIIPIFGTANYAQKFQGRVTITADESTSTAYMELSSLRSEDTAVYYCARVSGTTGGYYYGMDVWGQGTLVTVSS
VL: AIRMTQSPSSVSASVGDRVTITCRASQGIGNWLAWYQQKPGRAPKLLISTASSLQSGVPSRFSGGGSGRGFTLTISSLQLEDFATYYCQQSYITPWTFGQGTKVEIK
notes: (G4S)3 linker between the two scFv chains; second variable domain of agonist 61; Made with a CD8 signal peptide; firefly luciferase follows across a T2A peptide; also called scFv 61; KIR2DL2/3-specific scFv; source: K562 cells, transduced, on the cell surface; not shown: truncated human CD8 (CD8 hinge), C-terminal, kept

— PMC12480839, “Selective agonists of KIR and NKG2A to evade missing self response of natural killer cells” (Scientific Reports, 2025)
